The labels stand for the following.
B1: artificial receptor No. 40 (n=2): peptide building blocks HM MY (designed binder)
peptide 1: Ac-KAGAGHGM-NHMe
peptide 2: Ac-KAGAGMGY-NHMe
B2: artificial receptor No. 68 (n=3): peptide building blocks RM HM MY (designed binder)
peptide 1: KAGAGRGM-NHMe
peptide 2: Ac-KAGAGHGM-NHMe
peptide 3: Ac-KAGAGMGY-NHMe
modifications: not fully specified (N-terminus)
B3: artificial receptor No. 93 (n=3): peptide building blocks RY MY DD (designed binder)
peptide 1: Ac-KAGAGRGY-NHMe
peptide 2: Ac-KAGAGMGY-NHMe
peptide 3: Ac-KAGAGDGD-NHMe
B4: artificial receptor No. 278 (n=5): peptide building blocks RM RY QM MY TY (designed binder)
peptide 1: KAGAGRGM
peptide 2: KAGAGRGY
peptide 3: KAGAGQGM
peptide 4: KAGAGMGY
peptide 5: KAGAGTGY
modifications: not fully specified; N-terminal acetyl (Ac-HN-); C-terminal methyl amide (-C(O)-NH-CH3)
B5: artificial receptor No. 71 (n=3): peptide building blocks RM MY TY (designed binder)
peptide 1: KAGAGRGM-NHMe
peptide 2: Ac-KAGAGMGY-NHMe
peptide 3: Ac-KAGAGTGY-NHMe
modifications: not fully specified (N-terminus)
B6: artificial receptor No. 10 (n=2): peptide building blocks RM TY (designed binder)
peptide 1: KAGAGRGM-NHMe
peptide 2: Ac-KAGAGTGY-NHMe
modifications: not fully specified (N-terminus)
B7: artificial receptor No. 7 (n=1): peptide building block MY (peptide)
peptide: KAGAGMGY-NHMe
modifications: not fully specified (N-terminus)
B8: artificial receptor No. 65 (n=3): peptide building blocks RM QY MY (designed binder)
peptide 1: KAGAGRGM-NHMe
peptide 2: Ac-KAGAGQGY-NHMe
peptide 3: Ac-KAGAGMGY-NHMe
modifications: not fully specified (N-terminus)
B9: artificial receptor No. 50 (n=3): peptide building blocks RM RY MY (designed binder)
peptide 1: KAGAGRGM-NHMe
peptide 2: Ac-KAGAGRGY-NHMe
peptide 3: Ac-KAGAGMGY-NHMe
modifications: not fully specified (N-terminus)
B10: artificial receptor No. 1 (n=1): peptide building block RM (peptide)
peptide: KAGAGRGM-NHMe
modifications: not fully specified (N-terminus)
B11: artificial receptor No. 89 (n=3): peptide building blocks RY HM MY (designed binder)
peptide 1: Ac-KAGAGRGY-NHMe
peptide 2: Ac-KAGAGHGM-NHMe
peptide 3: Ac-KAGAGMGY-NHMe
B12: artificial receptor No. 15 (n=2): peptide building blocks RM MY (designed binder)
peptide 1: Ac-KAGAGRGM-NHMe
peptide 2: Ac-KAGAGMGY-NHMe
B13: artificial receptor No. 61 (n=3): peptide building blocks RM QM MY (designed binder)
peptide 1: Ac-KAGAGRGM-NHMe
peptide 2: Ac-KAGAGQGM-NHMe
peptide 3: Ac-KAGAGMGY-NHMe
B14: artificial receptor No. 70 (n=3): peptide building blocks RM HM DD (designed binder)
peptide 1: KAGAGRGM-NHMe
peptide 2: Ac-KAGAGHGM-NHMe
peptide 3: Ac-KAGAGDGD-NHMe
modifications: not fully specified (N-terminus)
B15: artificial receptor No. 133 (n=4): peptide building blocks RM RY QH MY (designed binder)
peptide 1: KAGAGRGM-NHMe
peptide 2: Ac-KAGAGRGY-NHMe
peptide 3: Ac-KAGAGQGH-NHMe
peptide 4: Ac-KAGAGMGY-NHMe
modifications: not fully specified (N-terminus)
B16: artificial receptor No. 22 (n=2): peptide building blocks RY MY (designed binder)
peptide 1: Ac-KAGAGRGY-NHMe
peptide 2: Ac-KAGAGMGY-NHMe
B17: artificial receptor No. 46 (n=3): peptide building blocks RM RY QH (designed binder)
peptide 1: KAGAGRGM-NHMe
peptide 2: Ac-KAGAGRGY-NHMe
peptide 3: Ac-KAGAGQGH-NHMe
modifications: not fully specified (N-terminus)
B18: artificial receptor No. 72 (n=3): peptide building blocks RM MY DD (designed binder)
peptide 1: KAGAGRGM-NHMe
peptide 2: Ac-KAGAGMGY-NHMe
peptide 3: Ac-KAGAGDGD-NHMe
modifications: not fully specified (N-terminus)
B19: artificial receptor No. 56 (n=3): peptide building blocks RM QH MY (designed binder)
peptide 1: Ac-KAGAGRGM-NHMe
peptide 2: Ac-KAGAGQGH-NHMe
peptide 3: Ac-KAGAGMGY-NHMe
B20: artificial receptor No. 69 (n=3): peptide building blocks RM HM TY (designed binder)
peptide 1: KAGAGRGM-NHMe
peptide 2: Ac-KAGAGHGM-NHMe
peptide 3: Ac-KAGAGTGY-NHMe
modifications: not fully specified (N-terminus)
B21: artificial receptor No. 49 (n=3): peptide building blocks RM RY HM (designed binder)
peptide 1: KAGAGRGM-NHMe
peptide 2: Ac-KAGAGRGY-NHMe
peptide 3: Ac-KAGAGHGM-NHMe
modifications: not fully specified (N-terminus)

Ends that are not written are not given here.

In one assay the test system is Anti-FLAG® M2 monoclonal antibody.
Test: not given
The assay is classed as binding.
Settings: not given
Regarding “MET-ASP-TYR-LYS-ASP-HIS-ASP-GLY-ASP-TYR-LYS-ASP-HIS-ASP-ILE-ASP-TYR-LYS-ASP-ASP-ASP-ASP-LYS [3×FLAG® peptide]”, the “binding of anti-FLAG Mab in the microarray (fluorescence)” value is given as “bound”.

The test system is the same in the next assay.
Test: not given
The settings on record: cited from earlier work.
Take “ASP-TYR-LYS-ASP-ASP-ASP-ASP-LYS [FLAG® peptide]”: the “binding by the commercially available antibody” value is listed as “bound”.

Another assay concerns the target fluorescently labeled Anti-FLAG® M2 monoclonal antibody (Sigma). Put plainly: fluorescence microarray: peptides immobilized on epoxide slide, probed with fluorescently labeled antibody.
Settings: not given
As to B1, the Mean Fluorescence Units (fluorescence units) is 46800.

In the case of B2, the Mean Fluorescence Units (fluorescence units) came to 34500.

B3 came in with a Mean Fluorescence Units (fluorescence units) of 46700.

For the molecule B4, the Mean Fluorescence Units (fluorescence units) was 65000.

Regarding B5, the Mean Fluorescence Units (fluorescence units) came out at 47800.

For B6, the Mean Fluorescence Units (fluorescence units) was 35100.

The molecule B7 displayed a Mean Fluorescence Units (fluorescence units) of 64600.

The molecule B8 returned a Mean Fluorescence Units (fluorescence units) of 40900.

Turning to B9, the Mean Fluorescence Units (fluorescence units) stood at 54400.

For the molecule B10, the Mean Fluorescence Units (fluorescence units) was found to be 47700.

Regarding B11, the Mean Fluorescence Units (fluorescence units) was 57200.

In the case of B12, the Mean Fluorescence Units (fluorescence units) was 64600.

B13 came in with a Mean Fluorescence Units (fluorescence units) of 47800.

On to B14, for which the Mean Fluorescence Units (fluorescence units) worked out at 32500.

As to B15, the Mean Fluorescence Units (fluorescence units) was 47600.

Regarding B16, the Mean Fluorescence Units (fluorescence units) stood at 53500.

Consider B17, for which the Mean Fluorescence Units (fluorescence units) came out at 39500.

For the molecule B18, the Mean Fluorescence Units (fluorescence units) was 52100.

The molecule B19 displayed a Mean Fluorescence Units (fluorescence units) of 32600.

B20 had a Mean Fluorescence Units (fluorescence units) of 39800.

Turning to B21, the Mean Fluorescence Units (fluorescence units) was 39800.

Source of the values: patent publication US7985715B2 (priority 2004, dated 2011).
